Test results published in IntAct's records for PubMed 15504911.

B1: ADP-ribosylation factor 1 (Saccharomyces cerevisiae), P11076 (parent)
chain: MGLFASKLFSNLFGNKEMRILMVGLDGAGKTTVLYKLKLGEVITTIPTIGFNVETVQYKNISFTVWDVGGQDRIRSLWRHYYRNTEGVIFVVDSNDRSRIGEAREVMQRMLNEDELRNAAWLVFANKQDLPEAMSAAEITEKLGLHSIRNRPWFIQATCATSGEGLYEGLEWLSNSLKNST
partner: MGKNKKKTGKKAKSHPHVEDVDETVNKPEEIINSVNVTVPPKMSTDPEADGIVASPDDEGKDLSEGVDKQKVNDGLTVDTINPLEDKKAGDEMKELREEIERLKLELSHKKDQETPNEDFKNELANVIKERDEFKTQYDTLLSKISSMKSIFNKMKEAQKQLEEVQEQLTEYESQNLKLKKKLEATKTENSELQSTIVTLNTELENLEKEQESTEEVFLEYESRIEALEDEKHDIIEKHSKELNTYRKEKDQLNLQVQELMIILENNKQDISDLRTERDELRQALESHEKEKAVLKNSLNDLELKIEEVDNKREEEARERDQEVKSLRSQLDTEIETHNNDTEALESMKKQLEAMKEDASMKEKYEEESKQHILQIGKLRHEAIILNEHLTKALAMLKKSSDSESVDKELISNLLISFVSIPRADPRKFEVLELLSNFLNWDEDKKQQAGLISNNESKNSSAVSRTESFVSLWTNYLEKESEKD
B2: GRIP domain-containing protein RUD3 (Saccharomyces cerevisiae), Q12234 (parent)
chain: B1 partner
partner: B1 chain

Variants of: B1
Details: with rud3_yeast RUD3, Q12234

Variant | effect of a mutation on the interaction
T32N | decreasing interaction

Variants of: B2
Details: with arf1_yeast ARF1, P11076

Variant | effect of a mutation on the interaction
L410A | decreasing interaction
